Test in all cases: purified protein
In data set [1] the test system is T1, NC(=O)c1ccc[n+]([C@@H]2O[C@H](COP(=O)(O)OP(=O)(O)OC[C@H]3O[C@@H](n4cnc5c(N)ncnc54)[C@H](O)[C@@H]3O)[C@@H](O)[C@H]2O)c1.
T1 construct: synthetic gene in pET22b (NdeI/NotI), C-terminal His tag kept, E. coli BL21(DE3), about 44 kDa
It is filed as biochemical, Pseudomonas sp. 101. Conditions: 500 mM formate, PBS, 0.05% Triton X-100.

In data set [2] the test system is T2, NC(=O)c1ccc[n+]([C@@H]2O[C@H](COP(=O)(O)OP(=O)(O)OC[C@H]3O[C@@H](n4cnc5c(N)ncnc54)[C@H](OP(=O)(O)O)[C@@H]3O)[C@@H](O)[C@H]2O)c1.
T2 construct: synthetic gene in pET22b (NdeI/NotI), C-terminal His tag kept, E. coli BL21(DE3), about 44 kDa
It is filed as biochemical, Pseudomonas sp. 101. As to conditions: 500 mM formate, PBS, 0.05% Triton X-100.

Substrate in data set [3]: NC(=O)c1ccc[n+]([C@@H]2O[C@H](COP(=O)(O)OP(=O)(O)OC[C@H]3O[C@@H](n4cnc5c(N)ncnc54)[C@H](OP(=O)(O)O)[C@@H]3O)[C@@H](O)[C@H]2O)c1
It is filed as biochemical, Arabidopsis thaliana.

Substrate in data set [4]: O=CO
Conditions: 2 mM NADP+, PBS, 0.05% Triton X-100; same doubt on QN or QH.

Substrate in data set [5]: NC(=O)c1ccc[n+]([C@@H]2O[C@H](COP(=O)(O)OP(=O)(O)OC[C@H]3O[C@@H](n4cnc5c(N)ncnc54)[C@H](OP(=O)(O)O)[C@@H]3O)[C@@H](O)[C@H]2O)c1
The format is biochemical, Solanum tuberosum. As to conditions: 500 mM formate, PBS, 0.05% Triton X-100; positions 197/199 from methods and Table 1, b33 prints 195/197.

Where two headings read alike, the source gives them in different places.

For orientation: Km means the substrate concentration at which the rate is half of its maximum. The term Vmax denotes the top rate of the reaction or transport when substrate is in excess.

With “Pseudomonas FDH (PsFDH) (Pseudomonas sp. 101; D222Q/H224N)”, the Km in data set [1] came to 1000 ± 600 µM; in data set [2] it was 350 ± 10 µM. Also, the Vmax in data set [1] stood at 0.55 µM/min.

B1: Arabidopsis FDH (AtFDH) (Arabidopsis thaliana; D227Q/L229N) (protein)
chain: ASSGDSKKIVGVFYKANEYATKNPNFLGCVENALGIRDWLESQGHQYIVTDDKEGPDCELEKHIPDLHVLISTPFHPAYVTAERIKKAKNLKLLLTAGIGSDHIDLQAAAAAGLTVAEVTGSNVVSVAEDELMRILILMRNFVPGYNQVVKGEWNVAGIAYRAYDLEGKTIGTVGAGRIGKLLLQRLKPFGCNLLYHQRNQMAPELEKETGAKFVEDLNEMLPKCDVIVINMPLTEKTRGMFNKELIGKLKKGVLIVNNARGAIMERQAVVDAVESGHIGGYSGDVWDPQPAPKDHPWRYMPNQAMTPHTSGTTIDAQLRYAAGTKDMLERYFKGEDFPTENYIVKDGELAPQYR
notes: synthetic gene in pET22b (NdeI/NotI), C-terminal His tag kept, E. coli BL21(DE3); partly digested on purification; primer encodes CNLLYH-X-R-X-QMAPEL
For the molecule B1, the Km in data set [3] was determined as 910 ± 70 µM; in data set [4], 96000 ± 14000 µM.

B2: potato FDH (PoFDH) (Solanum tuberosum; D224Q/L226H) (protein)
chain: LQASPGPKKIVGVFYKANEYAEMNPNFLGCAENALGIREWLESKGHQYIVTPDKEGPDCELEKHIPDLHVLISTPFHPAYVTAERIKKAKNLQLLLTAGIGSDHVDLKAAAAAGLTVAEVTGSNTVSVAEDELMRILILVRNFLPGHHQVINGEWNVAAIAHRAYDLEGKTVGTVGAGRIGRLLLQRLKPFNCNLLYHQRHKMDSELENQIGAKFEEDLDKMLSKCDIVVINTPLTEKTKGMFDKERIAKLKKGVLIVNNARGAIMDTQAVVDACNSGHIAGYSGDVWYPQPAPKDHPWRYMPNQAMTPHISGTTIDAQLRYAAGTKDMLDRYFKGEDFPAENYIVKDGELAPQYR
notes: synthetic gene in pET22b (NdeI/NotI), C-terminal His tag kept, E. coli BL21(DE3); primer encodes CNLLYH-X-R-X-KMDSEL
For B2, the Km in data set [5] was found to be 620 ± 50 µM.

The record behind these values is PMC3735542, “Light Driven CO2 Fixation by Using Cyanobacterial Photosystem I and NADPH-Dependent Formate Dehydrogenase” (PLoS ONE, 2013).
